Assay results taken from patent US20120093921A1, “IMMUNOGENIC COMPOSITIONS HAVING LOW SODIUM CHLORIDE CONCENTRATION” (GLAXOSMITHKLINE BIOLOGICALS S.A., priority 2009, published 2012).

What was measured:
[1] = Salting out / precipitation of antigen on reconstitution in adjuvant buffer (visual); type: physicochemical
Experimental: Accordingly, in one embodiment the antigen or antigenic preparation is any antigen which precipitates, coagulates or aggregates after being dissolved in a solution comprising a concentration of sodium chloride (NaCl) or wherein the ionic strength of the solution is greater than 5 mM, 10 mM, 15 mM, 20 mM, 30 mM, 40 mM, 50 mM, 60 mM, 70 mM, 80 mM, 90 mM or 100 mM. The person skilled in the art can determine whether an antigen meets this definition by dissolving and/or mixing an antigen in such a solution. […] An antigen which precipitates, coagulates or aggregates after being dissolved in a solution comprising a concentration of sodium chloride of 100 mM is one which, after 24 hours or less, can be seen to be precipitating by the cloudiness of the solution. In addition, aggregation that is not detectable visually may be observed using methods known to the skilled person which include, but are not limited to SEC-HPLC.
The resulting lyophilsation cake was reconstituted with 625 μl of aqueous adjuvant composition prepared as in Example 2 comprising 150 mM NaCl. The lyophilsation cake contained a 1.25 fold excess of antigen dose to have the right antigen/adjuvant ratio after reconstitution with a final composition of 16 mM Tris, 4 mM borate, 4% sucrose, 0.24% Poloxamer 188, 840 μg/ml CpG and 1000 μg/ml PRAME.
The resulting lyophilsation cake was reconstituted with 625 μl of ASA buffers (150 mM NaCl and sorbitol).
1. PRAME antigen reconstituted in ASA 150 mM NaCl buffer. 2. PRAME antigen reconstituted in ASA sorbitol buffer. 3. NYESO-1 antigen reconstituted in ASA 150 mM NaCl buffer. 4. NYESO-1 antigen reconstituted in ASA sorbitol buffer.
FIG. 4 is a photographic comparison between PRAME and NYESO-1 reconstituted in ASA (150 mM NaCl) and ASA (sorbitol). […] Similarly, NY-ESO reconstituted in ASA (150 mM NaCl) appears cloudy compared to NY-ESO antigen reconstituted in ASA (sorbitol).

[2] = tested on: chicken Red Blood cells (RBC); assay: QS21 lytic activity, haemolysis assay (limit test); type: cell-based; settings: example curve; OD of 0.12
Experimental: QS21 is known to lyse red blood cells (RBC).
QS21 lytic activity was measured by a haemolysis assay using chicken Red Blood cells (RBC). RBC were centrifuged at 550 g at 4° C. Supernatant was discarded. The pellet was carefully resuspended in PBS buffer to reach the initial volume and the same operation was repeated until supernatant was no longer red (generally 3 times). The pellet was stored at 4° C. for 3 to 4 days maximum if not used directly (and washed again the day it is used) or was diluted around 10 times in buffer if used the same day.
A QS21 dose range curve was prepared in ASA buffer (in salt or in sorbitol buffer following the ASA sample tested) extemporaneously and the adjuvant samples (containing a 50 μg or 90 μg equivalent of QS21 meaning the equivalent of 500 μl or 900 μl ASA) were prepared. Final volume was adjusted to 900 μl in standards and samples with adequate buffer (containing or not sorbitol as a function of the buffer of the sample tested). Due to its opalescence, ASA interferes in optical density (OD). […] Optical density at 540 nm was measured after centrifugation. […]
1. Limit of detection (LOD) was defined as the lowest concentration of QS21 leading to an OD: • Higher than the base level (OD>0.1) • Around three times higher than OD's buffer (the “o μg” QS21) • In the ascendant part of the curve • Determined for each test. […]

| Substance | appearance after reconstitution ([1]; lyophilised with CpG, reconstituted in ASA (150 mM NaCl), compared to ASA (sorbitol), FIG. 4) | salting out in adjuvant composition ([1]; salt concentration reduced to 5 mM and sorbitol included (ASA sorbitol buffer), FIG. 4) | concentration of sodium chloride at which the antigens aggregate and precipitate ([1]; salting out, as low as) | Limit of Detection (lowest concentration of QS21 leading to OD above base level) [2] |
| --- | --- | --- | --- | --- |
| PRAME: tumour protein antigen, described in U.S. Pat. No. 5,830,753; co-lyophilised with CpG 2006 in the examples | cloudy | prevents “salting out” | 150000 µM | – |
| QS21 | – | – | – | 0.9 µg |
